Patent US6506592B1, “Hyperthermophilic alpha-glucosidase gene and its use” (Board of Regents of the University of Nebraska, priority 1998, dated 2003)

B1: Beta-glycosidase: S. solfataricus beta-glycosidase (lacS) converting beta-linked disaccharides into glucose, expressed in transgenic tobacco (protein)
chain: MYSFPNSFRFGWSQAGFQSEMGTPGSEDPNTDWYKWVHDPENMAAGLVSGDLPENGPGYWGNYKTFHDNAQKMGLKIARLNVEWSRIFPNPLPRPQNFDESKQDVTEVEINENELKRLDEYANKDALNHYREIFKDLKSRGLYFILNMYHWPLPLWLHDPIRVRRGDFTGPSGWLSTRTVYEFARFSAYIAWKFDDLVDEYSTMNEPNVVGGLGYVGVKSGFPPGYLSFELSRRAMYNIIQAHARAYDGIKSVSKKPVGIIYANSSFQPLTDKDMEAVEMAENDNRWWFFDAIIRGEITRGNEKIVRDDLKGRLDWIGVNYYTRTVVKRTEKGYVSLGGYGHGCERNSVSLAGLPTSDFGWEFFPEGLYDVLTKYWNRYHLYMYVTENGIADDADYQRPYYLVSHVYQVHRAINSGADVRGYLHWSLADNYEWASGFSMRFGLLKVDYNTKRLYWRPSALVYREIATNGAITDEIEHLNSVPPVKPLRH
B2: recombinant alpha-glucosidase: thermostable alpha-glucosidase of Sulfolobus solfataricus encoded by malA (SEQ ID NO:2), expressed recombinantly in E. coli or transgenic tobacco (protein, listed as Sulfolobus solfataricus)
chain: MQTIKIYENKGVYKVVIGEPFPPIEFPLEQKISSNKSLSELGLTIVQQGNKVIVEKSLDLKEHIIGLGEKAFELDRKRKRYVMYNVDAGAYKKYQDPLYVSIPLFISVKDGVATGYFFNSASKVIFDVGLEEYDKVIVTIPEDSVEFYVIEGPRIEDVLEKYTELTGKPFLPPMWAFGYMISRYSYYPQDKVVELVDIMQKEGFRVAGVFLDIHYMDSYKLFTWHPYRFPEPKKLIDELHKRNVKLITIVDHGIRVDQNYSPFLSGMGKFCEIESGELFVGKMWPGTTVYPDFFREDTREWWAGLISEWLSQGVDGIWLDMNEPTDFSRAIEIRDVLSSLPVQFRDDRLVTTFPDNVVHYLRGKRVKHEKVRNAYPLYEAMATFKGFRTSHRNEIFILSRAGYAGIQRYAFIWTGDNTPSWDDLKLQLQLVLGLSISGVPFVGCDIGGFQGRNFAEIDNSMDLLVKYYALALFFPFYRSHKATDGIDTEPVFLPDYYKEKVKEIVELRYKFLPYIYSLALEASEKGHPVIRPLFYEFQDDDDMYRIEDEYMVGKYLLYAPIVSKEESRLVTLPRGKWYNYWNGEIINGKSVVKSTHELPIYLREGSIIPLEGDELIVYGETSFKRYDNAEITSSSNEIKFSREIYVSKLTITSEKPVSKIIVDDSKEIQVEKTMQNTYVAKINQKIRGKINLE

How the values were obtained:
[1] = glucose release by transgenic plant protein extracts at 80° C.; assay type: biochemical; conditions: transgenic plant protein extract, incubation at 80° C.
Protocol: (§1) FIGS. 7A and B show the release of glucose by transgenic glycosyl hydrolases from exogenous and endogenous plant carbohydrates. FIG. 7A. Glucose released by the alpha-glucosidase using an exogenous soluble starch as substrate. A 5% (w/v) solution of soluble starch was incubated at 80° C. with no additions (closed circles), with a protein extract from a plant transformed with an empty vector (open circles) and with a protein extract from transformant MI52E containing the alpha-glucosidase (closed squares). FIG. 7B. Glucose released by glycosyl hydrolases using an endogenous polysaccharide-enriched plant extract as substrate. Protein extracts were: beta-glycosidase (closed squares), alpha-glucosidase (closed circles), and empty vector transformed plant (labeled). Glucose levels were determined using the glucose oxidase assay.
Conversion of plant polysaccharide into free sugar is conventionally done by addition of purified or semipurified hydrolytic enzymes. […] Protein extracts of the alpha-glucosidase transgenic plant MI52E, were prepared and combined with soluble starch. Plant leaves were harvested in the late afternoon, ground in liquid nitrogen with a mortar and pestle in 100 mM phosphate buffer at pH 7.0. […] No significant glucose was detected in reactions containing protein extracts from plants transformed with empty vector and added starch or in reactions containing starch alone. […]

[2] = beta-glycosidase activity in tobacco leaf extract (beta-PNPG hydrolysis); assay type: biochemical
Protocol: To obtain tobacco leaf extract for assays, approximately […] of tobacco (five 1.1 cm diameter disk punches) leaves were harvested, rinsed with distilled water, midribs removed and weighed. Leaves were then ground to a powder in liquid nitrogen and ground again with a sterilized pestle. The extracts were then clarified by centrifugation at 14,000 rpm for 10 minutes at room temperature. The resulting supernatant was heat treated for 1 hour at 85° C. and clarified by spinning at 14,000 rpm for 10 minutes at room temperature. The supernatant was collected and assayed for alpha-glucosidase or beta-glycosidase enzyme activity by measuring the hydrolysis of p-nitrophenyl-alpha-glucopyranoside (alpha-PNPG) and p-nitrophenyl-beta-D-glucopyranoside (beta-PNPG), respectively, as previously described (Rolfsmeier, et al., 1998; Haseltine, et al., 1999(a)). Plant tissue extracts for studies on hydrolysis of added defined substrates were prepared using 100 g of tobacco leaves were harvested and grinded to a fine powder in liquid nitrogen. The leaf powder was resuspended in 500 ml of 10 mM tris-Cl pH7.0 to which 10 mM beta-mercaptoethanol has been added. The suspension was then homogenized in a Waring blender. The resulting extract was centrifuged at 5,000 rpm for 30 minutes at 4° C. and the supernatant was further clarified by filtering through three layers of cheesecloth. […] Glucose released by glycosyl hydrolase action on endogenous plant carbohydrates was measured using the Glucose Oxidase Assay (Sigma).
Glucosyl hydrolase levels were determined in primary plant transformants using clarified leaf extracts incubated at 80° C. […] Activity was measured on fully expanded leaves of plants that had grown in soil for 76 to 164 days. Levels of the beta-glycosidase in young primary transformants was determined in twenty-three independent events. […]
It has been determined that glycosyl hydrolases retain significant activity in fully mature and preserved leaf tissue. […]

[3] = glucose release from endogenous polysaccharide-enriched tobacco extract at 80° C.; assay type: biochemical, Nicotiana tabacum; conditions: transgenic protein extract plus polysaccharide-enriched tobacco extract, terminated after 160 hr
Protocol: as §1
To obtain tobacco leaf extract for assays, approximately […] of tobacco (five 1.1 cm diameter disk punches) leaves were harvested, rinsed with distilled water, midribs removed and weighed. Leaves were then ground to a powder in liquid nitrogen and ground again with a sterilized pestle. […] Glucose released by glycosyl hydrolase action on endogenous plant carbohydrates was measured using the Glucose Oxidase Assay (Sigma).
Levels of liberated glucose were determined as a function of incubation time at 80° C. […]

[4] = maltose hydrolysis, glucose oxidase assay; assay type: biochemical; conditions: FIG. 4A
From the text: (§2) Purification of the recombinant enzyme to apparent homogeneity employed heat fractionation of clarified cell sonicates followed by anion-exchange fast protein liquid chromatography and gel filtration fast protein liquid chromatography as described by Rolfsmeier, et al., 1995. […] Complete denaturation of the recombinant alpha-glucosidase required additional treatment with 6 M guanidine hydrochloride, resulting in exclusive formation of the 80-kDa monomer. Assays for alpha-glucosidase activity with p-nitrophenyl-α-D-glucopyranoside were performed as described by Rolfsmeier, et al., 1995. In enzymatic assays for hydrolysis of maltose and glycogen, release of glucose was monitored with a glucose oxidase assay kit (Sigma) as described by Rolfsmeier, et al., 1995.
(Rolfsmeier et al., 1995).

[5] = glycogen hydrolysis, glucose oxidase assay; assay type: biochemical
From the text: as §2
Alpha-glucosidases of mammalian origin are generally distinguished from those of higher plants and eubacteria by their affinities for glycogen as a substrate.

[6] = conversion of added starch to glucose by concentrated malA tobacco extract at 85° C.; assay type: biochemical; conditions: 5% starch, extract pre-treated one hour at 85° C., 16 hours
Protocol: Precipitation of tobacco leaf proteins with (NH4)2 SO4 achieved a 3-fold concentration of the recombinant alpha-glucosidase with a recovery of 100%. Endogenous plant glycolytic activities were eliminated prior to malA assays by heat inactivation (1 hr, […]). Background due to endogenous glucose was removed by dialysis. […] In an attempt to remove this background, concentrated empty vector control extract was pre-incubated for one hour at 85° C., clarified by microcentrifugation and then incubated for 0 or 14 hour at 85° C. in the presence or absence of 5% starch. Without preincubation, background in the presence of starch was very high, at both 0 and at 14 hours, corresponding to 17.8 to 19.2 micrograms of glucose per 100 microliters of assay. Background in the absence of starch was much lower, but apparently more time-dependent, rising from 0.9 to 1.6 micrograms of glucose per 100 microliters in 14 hours (FIG. 7). When the extract was pre-heated before assay, the background in the absence of starch was unchanged, but the background in the presence of starch was then at the same level as the background in the absence of starch without pre-heating (FIG. 7). […]
For measurements of glycosyl hydrolase activities on glucose polymers. […] Aliquots of 100 ul were removed at four hour intervals and glucose was detected with a glucose oxidase glucose detection kit from Sigma.

[7] = hydrolysis of p-nitrophenyl-α-D-glucopyranoside by purified recombinant enzyme; assay type: biochemical; conditions: 85° C., purified recombinant enzyme from E. coli
Protocol: The production of the recombinant enzymes of this invention were conducted by over expression in E. coli. Assays for alpha-glucosidase activity were performed with para-nitrophenyl-alpha-D-glucopyranoside or methylumbelliferyl-alpha-D-glucoside. Assays for hydrolysis of substrate and detection of glucose were monitored by means known in the art. Purification of the recombinant enzyme to apparent homogeneity employed heat fractionation of clarified cell sonicates followed by anion-exchange fast protein liquid chromatography and gel filtration fast protein liquid chromatography as described in Rolfsmeier, et al.,1995.
Purification of the recombinant enzyme to apparent homogeneity employed heat fractionation of clarified cell sonicates followed by anion-exchange fast protein liquid chromatography and gel filtration fast protein liquid chromatography as described by Rolfsmeier, et al., 1995. […] Complete denaturation of the recombinant alpha-glucosidase required additional treatment with 6 M guanidine hydrochloride, resulting in exclusive formation of the 80-kDa monomer. Assays for alpha-glucosidase activity with p-nitrophenyl-α-D-glucopyranoside were performed as described by Rolfsmeier, et al., 1995. In enzymatic assays for hydrolysis of maltose and glycogen, release of glucose was monitored with a glucose oxidase assay kit (Sigma) as described by Rolfsmeier, et al., 1995. […]

[8] = recalcitrance to denaturation in denaturing SDS-PAGE; assay type: physicochemical; conditions: boiling in 2% (wt/vol) SDS for 10 minutes
From the text: as §2

[9] = alpha-glucosidase activity in tobacco leaf extract (alpha-PNPG hydrolysis); assay type: biochemical
Protocol: To obtain tobacco leaf extract for assays, approximately […] of tobacco (five 1.1 cm diameter disk punches) leaves were harvested, rinsed with distilled water, midribs removed and weighed. Leaves were then ground to a powder in liquid nitrogen and ground again with a sterilized pestle. The extracts were then clarified by centrifugation at 14,000 rpm for 10 minutes at room temperature. The resulting supernatant was heat treated for 1 hour at 85° C. and clarified by spinning at 14,000 rpm for 10 minutes at room temperature. The supernatant was collected and assayed for alpha-glucosidase or beta-glycosidase enzyme activity by measuring the hydrolysis of p-nitrophenyl-alpha-glucopyranoside (alpha-PNPG) and p-nitrophenyl-beta-D-glucopyranoside (beta-PNPG), respectively, as previously described (Rolfsmeier, et al., 1998; Haseltine, et al., 1999(a)). Plant tissue extracts for studies on hydrolysis of added defined substrates were prepared using 100 g of tobacco leaves were harvested and grinded to a fine powder in liquid nitrogen. The leaf powder was resuspended in 500 ml of 10 mM tris-Cl pH7.0 to which 10 mM beta-mercaptoethanol has been added. The suspension was then homogenized in a Waring blender. The resulting extract was centrifuged at 5,000 rpm for 30 minutes at 4° C. and the supernatant was further clarified by filtering through three layers of cheesecloth. Plant extracts used for studies on hydrolysis of endogenous polysaccharides as sources of transgenic proteins were prepared using one leaf (medium to large) for each plant which was harvested and ground to a fine powder in liquid nitrogen. The ground leaves were resuspended in 2 volumes of 100 mM sodium phosphate pH 7.0 with 10 mM beta-mercaptoethanol and the tissue was further homogenized in a Waring blender. The resulting extracts were then incubated at 80° C. to activate the recombinant alpha-glucosidase and beta-glycosidase for 48 hours. After incubation, the extracts were clarified by centrifugation by 12,500 rpm for 10 minutes 4° C. Glucose released by glycosyl hydrolase action on endogenous plant carbohydrates was measured using the Glucose Oxidase Assay (Sigma).
Glucosyl hydrolase levels were determined in primary plant transformants using clarified leaf extracts incubated at 80° C. Plants transformed with empty vector lacked detectable thermostable glycosyl hydrolase activity. Activity was measured on fully expanded leaves of plants that had grown in soil for 76 to 164 days. Levels of the beta-glycosidase in young primary transformants was determined in twenty-three independent events. Enzyme levels in ten representative isolates ranged over 12-fold with maximum values of 29 μmoles PNP/min/mg of protein (FIG. 5B).
It has been determined that glycosyl hydrolases retain significant activity in fully mature and preserved leaf tissue. Glycosyl hydrolase specific activities in plant tissues were compared, after freezing or drying, to levels in fresh tissue samples (Table 2). Significant beta-glycosidase activity was retained in leaves harvested and held at −80° C. for 5 days.

[10] = Dried transgenic tobacco leaf tissue
[11] = Fresh transgenic tobacco leaf tissue

Molecule	rate of appearance of glucose [1]	Beta-glycosidase specific activity in plant tissue [2, 10]	Beta-glycosidase specific activity in plant tissue [2, 11]	Beta-glycosidase specific activity in plant tissue ([2]; Frozen transgenic tobacco leaf tissue (−80° C. for 5 days))	initial lag before levels of glucose began to increase [3]	pH optimum for maltose hydrolysis [4]	Km for glycogen ([5]; 85° C.)	Vmax for glycogen ([5]; 85° C.)	pH optimum for glycogen hydrolysis ([5]; FIG. 4B)	net rate of glucose formation (conversion of added starch to glucose) [6]	Vmax for p-nitro-phenyl-α-D-glucopyranoside [7]	Km ([7]; read-out: Km for p-nitro-phenyl-α-D-glucopyranoside)	enzyme that failed to enter the separating gel, migrating in the stacking gel [8]	Alpha-glucosidase specific activity in plant tissue [9, 10]	Alpha-glucosidase specific activity in plant tissue [9, 11]	Alpha-glucosidase specific activity in plant tissue ([9]; Frozen transgenic tobacco leaf tissue)	activity more stable when dried, as compared to fresh tissues ([9]; dried vs fresh tobacco tissue)	activity more stable when frozen, as compared to fresh tissues ([9]; frozen vs fresh tobacco tissue)
B1	0.15 µg/h	31 μmoles PNP/min/mg	62 μmoles PNP/min/mg	67 μmoles PNP/min/mg	28 h	–	–	–	–	–	–	–	–	–	–	–	–	–
B2	0.11 µg/h	–	–	–	28 h	4.5	64.9 mg/mL	1.0 μmol of glucose/min	5.5	0.42 micrograms per hour	3.08 μmol of p-nitrophenol/min	2.16 mM	45 % of the total observed protein	27 μmoles PNP/hr/mg	1.6 μmoles PNP/hr/mg	3.6 μmoles PNP/hr/mg	17 times	over two
